Assay results: PMC6385319

Biological target: T1, mCherry-APPL1-delta-PTB
T1 sequence (Q9UKG1 whole entry, species assumed, looked up): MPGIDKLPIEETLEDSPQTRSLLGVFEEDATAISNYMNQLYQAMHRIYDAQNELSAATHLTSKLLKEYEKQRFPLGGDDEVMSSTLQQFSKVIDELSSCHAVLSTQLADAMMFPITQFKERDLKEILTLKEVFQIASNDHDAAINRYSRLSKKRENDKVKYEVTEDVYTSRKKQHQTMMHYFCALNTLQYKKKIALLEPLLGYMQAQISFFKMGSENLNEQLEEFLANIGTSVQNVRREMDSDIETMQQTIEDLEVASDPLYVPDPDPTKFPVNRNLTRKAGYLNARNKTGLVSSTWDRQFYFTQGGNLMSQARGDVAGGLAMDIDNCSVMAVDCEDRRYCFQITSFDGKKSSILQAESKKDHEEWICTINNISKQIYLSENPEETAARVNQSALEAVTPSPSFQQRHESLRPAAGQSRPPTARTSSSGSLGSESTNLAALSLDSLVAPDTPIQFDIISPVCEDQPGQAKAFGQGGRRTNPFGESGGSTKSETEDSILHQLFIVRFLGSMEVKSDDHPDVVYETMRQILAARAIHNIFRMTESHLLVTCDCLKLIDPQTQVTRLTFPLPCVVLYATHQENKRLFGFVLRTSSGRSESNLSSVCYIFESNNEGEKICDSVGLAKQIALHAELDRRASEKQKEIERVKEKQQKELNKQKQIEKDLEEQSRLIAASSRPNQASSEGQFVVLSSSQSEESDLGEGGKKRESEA
Test: FRET or BRET; FRET/FLIM in live primary hippocampal neurons at DIV 7, 37 °C; GFP-Akt1 donor, mCherry fusion acceptor; donor lifetime measured in cell body and growth cone; untreated

Sequence of GFP-Akt1 (P31749 whole entry, the tested form may be a part): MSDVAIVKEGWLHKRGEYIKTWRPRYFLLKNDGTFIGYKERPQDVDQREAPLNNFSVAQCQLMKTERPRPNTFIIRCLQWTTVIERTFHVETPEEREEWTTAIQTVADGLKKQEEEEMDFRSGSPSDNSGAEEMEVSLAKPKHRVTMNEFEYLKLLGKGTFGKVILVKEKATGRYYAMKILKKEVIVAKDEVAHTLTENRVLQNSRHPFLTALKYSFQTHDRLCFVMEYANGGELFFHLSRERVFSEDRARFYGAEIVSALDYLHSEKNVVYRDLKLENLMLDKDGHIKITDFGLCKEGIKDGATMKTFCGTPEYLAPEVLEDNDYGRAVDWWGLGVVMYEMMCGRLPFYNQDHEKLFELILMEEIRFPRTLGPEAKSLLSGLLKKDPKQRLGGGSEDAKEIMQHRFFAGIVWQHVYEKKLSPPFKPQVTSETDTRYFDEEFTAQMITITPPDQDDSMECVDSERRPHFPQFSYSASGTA

- FRET efficiency (growth cone): < 1%
Substance: GFP-Akt1 (from UniProt P31749 1-480)
